The text below walks through data of US20240117034A1 (SHANGHAI JEMINCARE PHARMACEUTICAL, published 2024).

For test [1], the target named is human GARP/human latent TGF-β1 complex on recombinant cells (293F-hGARP/hTGF-β1, CHOK1-hGARP/hTGF-β1) (human) (UniProt Q14392). In words: flow cytometry on 293F-hGARP/hTGF-β1 clone 2D3.
The target is the same in test [2]. Nature of the test: flow cytometry on 293F-hGARP/hTGF-β1 clone 2F4.
Test [3] concerns the target T1, human GARP/human latent TGF-β1 complex on recombinant cells (293F-hGARP/hTGF-β1, CHOK1-hGARP/hTGF-β1) (human, UniProt Q14392 20-662; P01137 30-390).
T1 construct: whole, on cells; Both full-length proteins were co-expressed on 293F or CHOK1 cells; The host cell of each assay is named in the assay field; also called 293F-hGARP/hTGF-β1 complex; clones 2F4 and 2D3
Nature of the test: flow cytometry competition on 293F-hGARP/hTGF-β1 cells; the competitor is Alexa 488-labelled MHG8 at a fixed concentration; falling curve.

Test [4] concerns the target T1, human GARP/human latent TGF-β1 complex …. Nature of the test: flow cytometry titration on 293F-hGARP/hTGF-β1 cells, Alexa 488 anti-mouse IgG secondary. How it is done:
The cells were counted and centrifuged at 300 g for 5 min, the supernatant was discarded, the cell pellet was resuspended and washed with 1×PBS, then centrifuged at 300 g for 5 min, the supernatant was discarded, and then the cell pellet was resuspended with FACS buffer containing 2% FBS to adjust to a density of 1e6 cells/mL. The cells were plated at a density of 1e5 cells/well for a constant volume of 100 μL/well at 4° C. for 0.5 h, and centrifuged at 300 g for 5 min, and the supernatant was discarded. The antibody to be tested was prepared in FACS buffer containing 2% FBS with a starting concentration of 15 µg/mL, followed by serial dilution with a dilution factor of 1:5 in a total of 7 gradients, and then was added for a constant volume of 100 μL/well, with 0 μg/mL as a control, the dilution was pipetted and mixed thoroughly at 4° C. for 1 h, and centrifuged at 300 g for 5 min, and the supernatant was discarded. 1×PBS was added for a constant volume of 200 μL/well to resuspend and mix the cell pellet thoroughly, followed by centrifugation at 300 g for 5 min, the supernatant was discarded, and the steps were repeated twice. […] The cell pellet was resuspended in FACS buffer containing 2% FBS to read on a FACS machine. […]

For test [5], the target named is T2, hGARP/hTGF-β1 complex (Kactus Biosystems, Cat. No.: GAR-HM4TG) (human, UniProt Q14392 20-627; P01137 30-390, limits assumed).
T2 construct: Bought soluble recombinant complex; also called antigen (hGARP/hTGF-β1 complex)
T2 sequence (Q14392 20-627 limits assumed, chain 1 of 2): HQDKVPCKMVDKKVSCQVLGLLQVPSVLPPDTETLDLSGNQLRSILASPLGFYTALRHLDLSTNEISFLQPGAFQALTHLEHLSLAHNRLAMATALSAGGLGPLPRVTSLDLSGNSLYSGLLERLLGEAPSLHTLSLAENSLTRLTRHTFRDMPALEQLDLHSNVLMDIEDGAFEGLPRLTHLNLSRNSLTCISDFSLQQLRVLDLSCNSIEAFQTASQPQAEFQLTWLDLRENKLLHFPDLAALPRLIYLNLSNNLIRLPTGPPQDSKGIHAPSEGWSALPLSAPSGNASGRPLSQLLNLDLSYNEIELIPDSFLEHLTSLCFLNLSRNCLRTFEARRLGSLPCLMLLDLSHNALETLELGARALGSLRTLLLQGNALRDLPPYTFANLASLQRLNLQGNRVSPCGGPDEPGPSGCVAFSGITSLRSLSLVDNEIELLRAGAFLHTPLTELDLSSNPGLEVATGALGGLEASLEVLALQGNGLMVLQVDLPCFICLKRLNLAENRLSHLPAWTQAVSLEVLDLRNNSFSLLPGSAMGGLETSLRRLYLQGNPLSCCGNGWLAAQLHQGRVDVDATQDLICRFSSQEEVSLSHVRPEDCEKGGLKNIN
T2 sequence (P01137 30-390 limits assumed, chain 2 of 2): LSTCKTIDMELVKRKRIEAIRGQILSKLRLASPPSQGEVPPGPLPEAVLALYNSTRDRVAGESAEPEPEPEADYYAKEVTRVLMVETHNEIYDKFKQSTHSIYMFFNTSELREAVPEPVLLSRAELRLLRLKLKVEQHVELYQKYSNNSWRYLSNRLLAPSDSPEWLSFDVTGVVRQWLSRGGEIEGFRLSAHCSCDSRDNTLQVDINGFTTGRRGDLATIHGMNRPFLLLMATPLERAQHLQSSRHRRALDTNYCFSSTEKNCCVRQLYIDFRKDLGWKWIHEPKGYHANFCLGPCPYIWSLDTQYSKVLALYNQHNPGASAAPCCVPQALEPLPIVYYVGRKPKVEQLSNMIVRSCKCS
Nature of the test: Octet RED96e (BLI), antibody captured on AHC sensor, complex in solution from 100 nM, 1:1 model.

Sequence of human GARP/human latent TGF-β1 complex on recombinant cells (293F-hGARP/hTGF-β1, CHOK1-hGARP/hTGF-β1) (human) (Q14392 20-662, chain 1 of 2): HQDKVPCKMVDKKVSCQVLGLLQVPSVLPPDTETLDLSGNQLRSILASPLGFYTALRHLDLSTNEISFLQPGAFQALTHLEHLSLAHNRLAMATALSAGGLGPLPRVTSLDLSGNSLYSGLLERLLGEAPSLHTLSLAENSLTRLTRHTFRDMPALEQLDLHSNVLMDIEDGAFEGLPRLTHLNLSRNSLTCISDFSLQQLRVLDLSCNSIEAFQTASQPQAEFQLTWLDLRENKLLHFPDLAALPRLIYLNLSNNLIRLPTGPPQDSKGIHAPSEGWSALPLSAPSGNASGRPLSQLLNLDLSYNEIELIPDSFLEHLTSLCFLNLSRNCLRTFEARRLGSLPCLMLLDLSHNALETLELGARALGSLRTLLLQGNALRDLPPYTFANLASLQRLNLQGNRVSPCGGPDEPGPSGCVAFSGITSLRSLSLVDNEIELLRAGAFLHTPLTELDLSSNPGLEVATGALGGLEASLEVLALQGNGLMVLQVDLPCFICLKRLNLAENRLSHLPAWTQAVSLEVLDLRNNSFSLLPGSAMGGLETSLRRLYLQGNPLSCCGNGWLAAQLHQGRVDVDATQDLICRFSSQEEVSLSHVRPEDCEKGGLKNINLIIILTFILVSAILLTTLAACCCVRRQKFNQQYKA
Sequence of human GARP/human latent TGF-β1 complex on recombinant cells (293F-hGARP/hTGF-β1, CHOK1-hGARP/hTGF-β1) (human) (P01137 30-390, chain 2 of 2, further chain): as the sequence (P01137 30-390 limits assumed, chain 2 of 2) above
T1 sequence (Q14392 20-662, chain 1 of 2): as the sequence (Q14392 20-662, chain 1 of 2) above
T1 sequence (P01137 30-390, chain 2 of 2): as the sequence (P01137 30-390 limits assumed, chain 2 of 2) above

In the case of “anti-human TGF-β1 antibody, Anti-LAP (TGF-β1) Antibody-APC (R&D Systems, FAB2463A)”, the Mean maximum fluorescence intensity (MFI) is 142000 MFI in test [1] and 150000 MFI in test [2].

With Isotype control-APC (antibody), the figures for the Mean maximum fluorescence intensity (MFI) in test [1] and in test [2] were 103 MFI and 90 MFI, respectively.

In the case of Isotype control-FITC (antibody), the Mean maximum fluorescence intensity (MFI) in test [1] came out at 103 MFI; in test [2], 101 MFI.

Consider “anti-human GARP antibody-FITC (Enzo life science, ALX-804-867FI-0100)”, for which the Mean maximum fluorescence intensity (MFI) in test [1] is 6960 MFI; in test [2], 8370 MFI.

B1: MHG8 (anti-human GARP antibody) (antibody, V domains shown)
VH: QVQLKESGPGLVAPSQSLSITCTVSGFSLTGYGINWVRQPPGKGLEWLGMIWSDGSTDYNSVLTSRLRISKDNSNSQVFLKMNSLQVDDTARYYCARDRNYYDYDGAMDYWGQGTSVTVSS
VL: DIQVTQSSSYLSVSLGDRVTITCKASDHIKNWLAWYQQKPGIAPRLLVSGATSLEAGVPSRFSGSGSGKNFTLSITSLQTEDVATYYCQQYWSTPWTFGGGTTLEIR
As for B1, the EC50 in test [3] worked out at 2.74 µg/mL. In addition, the EC50 in test [4] was 0.12 µg/mL. In test [5], this molecule returned an equilibrium dissociation constant (Kd) of 205 pM, a koff of 2.85e-05 s⁻¹ and a kon of 139000 M⁻¹ s⁻¹.

B2: murine anti-human GARP monoclonal antibody 8H2D7B3 (antibody, V domains shown)
VH: QVQLQQSGAELVRPGSSVKLSCKASGYTLSNYWMYWVKQRPIQGLEWIGSIAPSDSETHYNQKFKDRATVTVDKSSRIVYMQLSSLTSEDSAVYFCARGGFGYGSSHWYFDVWGTGTTVTVSS
VL: DIQMTQSSAYLSVSLGGRVTITCKASDHINKWLAWYQQKPGNAPRLLISGATSLETGIPSRFSGSGSGKDYTLSITGLQTEDVATYYCQQYWTTPYTFGGGTKLEIK
notes: Antibody purified from the hybridoma; It was detected with anti-mouse IgG, and mouse IgG1 served as isotype control; also called murine antibody 8H2D7B3
Take B2: the concentration giving a half-maximal response (EC50) in test [3] was determined as 1.61 µg/mL; in test [4], 0.108 µg/mL.
